PMC3793637 (Nature, 2013)

What was measured:
[1] = target: insulin receptor site 1 (Homo sapiens) (UniProt P06213); settings: cited from earlier work
[2] = target: insulin receptor site 2 (Homo sapiens) (UniProt P06213); settings: cited from earlier work
[3] = target: the molecule itself; assay: SEC
[4] = target: the molecule itself; assay: crystal structure

Sequence of insulin receptor site 2 (Homo sapiens) (P06213 763-956): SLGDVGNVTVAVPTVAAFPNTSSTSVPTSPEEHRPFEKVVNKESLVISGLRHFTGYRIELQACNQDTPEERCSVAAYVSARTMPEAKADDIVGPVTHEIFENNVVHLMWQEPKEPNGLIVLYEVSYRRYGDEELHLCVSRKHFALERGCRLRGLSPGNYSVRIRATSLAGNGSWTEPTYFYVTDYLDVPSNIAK
Sequence of insulin receptor site 1 (Homo sapiens) (P06213 763-956): as above

insulin (from UniProt P01308)
Kd [1]: 6.4 nM | Kd [2]: 400 nM

B1: IR593.αCT (domain or fragment, human, UniProt P06213 28-620, looked up)
chain: HLYPGEVCPGMDIRNNLTRLHELENCSVIEGHLQILLMFKTRPEDFRDLSFPKLIMITDYLLLFRVYGLESLKDLFPNLTVIRGSRLFFNYALVIFEMVHLKELGLYNLMNITRGSVRIEKNNELCYLATIDWSRILDSVEDNYIVLNKDDNEECGDICPGTAKGKTNCPATVINGQFVERCWTHSHCQKVCPTICKSHGCTAEGLCCHSECLGNCSQPDDPTKCVACRNFYLDGRCVETCPPPYYHFQDWRCVNFSFCQDLHHKCKNSRRQGCHQYVIHNNKCIPECPSGYTMNSSNLLCTPCLGPCPKVCHLLEGEKTIDSVTSAQELRGCTVINGSLIINIRGGNNLAAELEANLGLIEEISGYLKIRRSYALVSLSFFRKLRLIRGETLEIGNYSFYALDNQNLRQLWDWSKHNLTITQGKLFFHYNPKLCLSEIHKMEEVSGTKGRQERNDIALKTNGDQASCENELLKFSYIRTSFDKILLRWEPYWPPDFRDLLGFMLFYKEAPYQNVTEFDGQDACGSNSWTVVDIDPPLRSNDPKSQNHPGWLMRGLKPWTQYAIFVKTLVTFSDERRTYGAKSDIIYVQTDATTFEDYLHNVVFVPRPS
stoichiometry N [3]: 2 | stoichiometry N [4]: 4
